Data reported in the supplement of paper PMC10724198.
± gives the standard deviation of the averaged measurements.

System: Saccharomyces cerevisiae
Test: protein stability index of tFT-peptide fusion (C-terminal peptide) (PSI (0-1 scale)); higher = more stable (slower turnover)
Settings: genetic background: wild type; temperature: 30 C
Method: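 Multiplexed protein stability (MPS) profiling in S. cerevisiae. Random 12-aa peptides (tFT-X12 library) are fused to the C-terminus of a sfGFP-mCherry tandem fluorescent timer, after mCherry and a GGGS linker. Cells are FACS-sorted into 8 mCherry/sfGFP bins and deep-sequenced. The protein stability index (PSI) is the read-weighted bin average, scaled from 0 (unstable) to 1 (stable). Only peptides with >10 reads are reported; cells were grown at 30 °C in SC-His with glucose.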
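Further: PSI is a weighted mean of sequencing reads over stability bins, variants kept only with over 10 reads, mCherry proximal and sfGFP distal, peptide attached via GGGS linker.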

| Sequence | protein stability index |
| --- | --- |
| GLYAVHEAGWRP | 0.701 ± 0.089 |
| RVTVWHELTVDC | 0.569 ± 0.0083 |
| NGRNKKRKCLQT | 0.706 ± 0.086 |
| PPPFCPCNRLNG | 0.702 ± 0.0078 |
| CPFPPPPCPPPL | 0.665 ± 0.02 |
| ESNRHSHVVGPA | 0.683 ± 0.013 |
| SLAPSARLYPYH | 0.768 ± 0.03 |
| IDCCAGDSMAGI | 0.703 ± 0.072 |
| AYLPSLPPLGGI | 0.717 ± 0.06 |
| ARGCRRWRVLRR | 0.77 ± 0.25 |
| GVLPWQYSSFLS | 0.694 ± 0.058 |
| KKKNKKKRKGRK | 0.684 ± 0.037 |
| PQPPFTHGLIPS | 0.706 ± 0.023 |
| WLSMLLTVAPHH | 0.64278 ± 0.00026 |
| PHPPPHPLFSRF | 0.758 ± 0.02 |
| FAAGIMWQSGLK | 0.657 ± 0.019 |
| PRSLSLLPPSSP | 0.734 ± 0.037 |
| GGRVAGSMGVGG | 0.68 ± 0.02 |
| GRSITTSCTTER | 0.673 ± 0.036 |
| PPPPRPPFPRAF | 0.698 ± 0.0051 |
| SWRRAASSGGGE | 0.618 ± 0.074 |
| HPPPLGSSASNS | 0.703 ± 0.039 |
| FKLSRTDSWMFT | 0.712 ± 0.01 |
| PASCARVFVGMS | 0.67 ± 0.037 |
| WLFLCWCFFCCL | 0.597 ± 0.12 |

| Sequence | protein stability index |
| --- | --- |
| KGRTEKRGEKRT | 0.717 ± 0.017 |
| FARELGNLNVEK | 0.761 ± 0.056 |
| INQEKKLKNNKK | 0.70627 ± 0.0004 |
| SAHPFKSCPIGR | 0.682 ± 0.0094 |
| GETGGRSQDARI | 0.744 ± 0.088 |
| PRTPPQQEPRRP | 0.709 ± 0.054 |
| LSPPPRPPLAPP | 0.65 ± 0.039 |
| LPSPSSLPAPPV | 0.677 ± 0.031 |
| EGVWIVMFCGLL | 0.504 ± 0.11 |
| PPQLSRHVSTRP | 0.754 ± 0.0084 |
| FSSPLSSPSPLY | 0.6834 ± 0.0059 |
| GGRWGGVSLGGR | 0.693 ± 0.11 |
| PPPPPHAEAVSR | 0.59 ± 0.029 |
| TPMGFSRFLLSL | 0.553 ± 0.03 |
| VRARTAFVPLPA | 0.727 ± 0.097 |
| MTESLIGCLSGD | 0.7 ± 0.0074 |
| SLSAPPPRSTSP | 0.597 ± 0.021 |
| PPVRRPAHATTG | 0.722 ± 0.038 |
| VEHHSKQIEKGR | 0.681 ± 0.053 |
| EDCAGIFCQSVK | 0.68 ± 0.015 |
| PPHPLPPPSPPF | 0.682 ± 0.034 |
| HVTHRAVNVPLE | 0.674 ± 0.029 |
| FSPYLYNIRTSL | 0.612 ± 0.024 |
| VAYAGIRHDIPQ | 0.68 ± 0.081 |
| NFRTHRHLVARS | 0.762 ± 0.019 |

| Sequence | protein stability index |
| --- | --- |
| LVRNGLCCTSRQ | 0.704 ± 0.029 |
| GLRLGRVWVGGW | 0.6647 ± 0.0026 |
| GEYYAPVVGRRF | 0.7121 ± 0.0031 |
| GGGVDSGWGKGE | 0.688 ± 0.024 |
| ISGDGWNFVGIV | 0.715 ± 0.097 |
| RFIGVVTRLRRC | 0.643 ± 0.042 |
| PLYLSFSFCPSF | 0.611 ± 0.013 |
| KTCENKKKALRR | 0.6923 ± 0.0016 |
| KKTKKKKNKKQE | 0.716 ± 0.081 |
| RVWAGGGGGDGC | 0.691 ± 0.021 |
| PLVLSHRLPLPP | 0.703 ± 0.067 |
| YLLLVPDTRTLL | 0.683 ± 0.0079 |
| RNQQQENNKQSK | 0.694 ± 0.016 |
| LVGTYTPRFTPC | 0.643 ± 0.1 |
| FTPDFTPKGSLS | 0.791 ± 0.088 |
| PLPPRPHPLLSP | 0.6526 ± 0.0026 |
| KQKTSRGTGQSL | 0.683 ± 0.1 |
| GAPPLAPTPPPP | 0.745 ± 0.024 |
| LPPPLPPSLRLR | 0.602 ± 0.083 |
| IKKKKKKGIILD | 0.71 ± 0.05 |
| WKQKRGTHNIKD | 0.722 ± 0.011 |
| GTCWAGALGVVG | 0.684 ± 0.04 |
| GEEGAWSRQGPP | 0.658 ± 0.035 |
| SWIQLDAWETRS | 0.696 ± 0.041 |
| KMTSLSRVDIEE | 0.668 ± 0.087 |

| Sequence | protein stability index |
| --- | --- |
| FAQRRGPAALNI | 0.70492 ± 0.00052 |
| PVFDSRDRTFSH | 0.713 ± 0.042 |
| RPPPSPPPIPSP | 0.666 ± 0.033 |
| RSHRGSPCPLVP | 0.69 ± 0.025 |
| PTQPVPPRTPHY | 0.6698 ± 0.0051 |
| VGGGFSSVVWLW | 0.658 ± 0.043 |
| FSRAFLDRVIVS | 0.713 ± 0.04 |
| LGVFNRMKHSKH | 0.6702 ± 0.0029 |
| RVGTHDRTRAHG | 0.601 ± 0.02 |
| VPNTFVGVLICP | 0.607 ± 0.026 |
| WFLLTSSTSRPP | 0.737 ± 0.059 |
| PPFLLPCFPCFS | 0.494 ± 0.07 |
| LAPPPLGNSSRP | 0.704 ± 0.049 |
| VLSGPQVVWSES | 0.679 ± 0.017 |
| LRYENSQRKELR | 0.653 ± 0.055 |
| YSFVKEFLNHRY | 0.681 ± 0.036 |
| PALCGGFFLVGV | 0.636 ± 0.019 |
| SLPPPLPRRPPP | 0.729 ± 0.13 |
| AHPPPPQLPHPH | 0.7241 ± 0.0023 |
| KKKTIKKTIKNQ | 0.702 ± 0.031 |
| LEWHRPLCPPLF | 0.734 ± 0.075 |
| EESKEKKKNEEE | 0.63584 ± 4.9e-05 |
| VGGSERVWVKSL | 0.537 ± 0.043 |
